Results reported in patent publication CN114478789A (ANHUI ANKE BIOLOGICAL ENG GROUP CO LTD, dated 2022).

T1: 鼠源OX40 (mouse, UniProt P47741 20-211, limits assumed)
T1 construct: also called 鼠源OX40抗原
T1 sequence (looked up): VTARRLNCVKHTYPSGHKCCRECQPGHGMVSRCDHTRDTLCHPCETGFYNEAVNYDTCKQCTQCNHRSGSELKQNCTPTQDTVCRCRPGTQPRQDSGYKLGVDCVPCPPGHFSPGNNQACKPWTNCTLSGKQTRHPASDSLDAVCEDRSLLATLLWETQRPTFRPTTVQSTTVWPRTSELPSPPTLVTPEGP

T2: rhOX40-Avi-His (human, UniProt P43489 29-214, limits assumed)
T2 construct: also called OX40抗原; 人源OX40
T2 sequence (looked up): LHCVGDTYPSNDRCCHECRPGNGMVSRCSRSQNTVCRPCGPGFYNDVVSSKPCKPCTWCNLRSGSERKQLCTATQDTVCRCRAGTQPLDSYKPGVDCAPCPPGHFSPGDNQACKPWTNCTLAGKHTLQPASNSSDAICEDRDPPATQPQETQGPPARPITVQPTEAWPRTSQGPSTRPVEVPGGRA

B1: L52-2D7H232 (bispecific antibody, human IgG1, kappa)
light: DIQMTQSPSTLSASVGDRVTITCQSSQNVYSNNRLSWYQQKPGKAPKLLIYWTSFLASGVPSRFSGSGSGTEFTLTISSLQPDDFATYYCAGGYSGNLYTFGQGTKLEIKRTVAAPSVFIFPPSDEQLKSGTASVVCLLNNFYPREAKVQWKVDNALQSGNSQESVTEQDSKDSTYSLSSTLTLSKADYEKHKVYACEVTHQGLSSPVTKSFNRGEC
heavy: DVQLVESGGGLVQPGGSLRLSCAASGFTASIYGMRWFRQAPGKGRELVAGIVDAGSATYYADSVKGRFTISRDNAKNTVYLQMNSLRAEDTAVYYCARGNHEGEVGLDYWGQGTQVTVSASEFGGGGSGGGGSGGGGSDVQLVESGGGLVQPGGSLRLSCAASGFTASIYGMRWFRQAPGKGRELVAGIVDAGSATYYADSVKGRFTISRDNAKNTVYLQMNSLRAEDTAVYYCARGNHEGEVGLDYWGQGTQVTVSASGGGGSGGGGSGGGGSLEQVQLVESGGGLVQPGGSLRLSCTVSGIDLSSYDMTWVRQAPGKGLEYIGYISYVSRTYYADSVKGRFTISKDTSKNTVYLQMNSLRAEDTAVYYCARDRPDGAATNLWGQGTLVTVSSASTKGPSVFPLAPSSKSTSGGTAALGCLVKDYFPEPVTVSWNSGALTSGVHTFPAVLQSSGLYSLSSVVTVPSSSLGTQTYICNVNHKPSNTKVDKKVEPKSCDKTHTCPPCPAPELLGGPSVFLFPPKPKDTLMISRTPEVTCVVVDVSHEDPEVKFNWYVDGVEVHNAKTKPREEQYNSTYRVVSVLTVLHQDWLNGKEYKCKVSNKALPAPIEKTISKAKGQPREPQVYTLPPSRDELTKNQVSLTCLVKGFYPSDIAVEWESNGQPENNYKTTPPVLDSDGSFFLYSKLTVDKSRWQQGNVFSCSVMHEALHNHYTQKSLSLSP
notes: Symmetric bispecific: two tandem anti-OX40 nanobodies D7 joined to the heavy chain of the anti-PD-L1 IgG1 L52H232; also called 抗PD-L1与OX40双特异性抗体; 优选抗体L52-2D7H232
B2: L52H232-2D7 (bispecific antibody, human IgG1, kappa, N297A)
light: B1 light
heavy: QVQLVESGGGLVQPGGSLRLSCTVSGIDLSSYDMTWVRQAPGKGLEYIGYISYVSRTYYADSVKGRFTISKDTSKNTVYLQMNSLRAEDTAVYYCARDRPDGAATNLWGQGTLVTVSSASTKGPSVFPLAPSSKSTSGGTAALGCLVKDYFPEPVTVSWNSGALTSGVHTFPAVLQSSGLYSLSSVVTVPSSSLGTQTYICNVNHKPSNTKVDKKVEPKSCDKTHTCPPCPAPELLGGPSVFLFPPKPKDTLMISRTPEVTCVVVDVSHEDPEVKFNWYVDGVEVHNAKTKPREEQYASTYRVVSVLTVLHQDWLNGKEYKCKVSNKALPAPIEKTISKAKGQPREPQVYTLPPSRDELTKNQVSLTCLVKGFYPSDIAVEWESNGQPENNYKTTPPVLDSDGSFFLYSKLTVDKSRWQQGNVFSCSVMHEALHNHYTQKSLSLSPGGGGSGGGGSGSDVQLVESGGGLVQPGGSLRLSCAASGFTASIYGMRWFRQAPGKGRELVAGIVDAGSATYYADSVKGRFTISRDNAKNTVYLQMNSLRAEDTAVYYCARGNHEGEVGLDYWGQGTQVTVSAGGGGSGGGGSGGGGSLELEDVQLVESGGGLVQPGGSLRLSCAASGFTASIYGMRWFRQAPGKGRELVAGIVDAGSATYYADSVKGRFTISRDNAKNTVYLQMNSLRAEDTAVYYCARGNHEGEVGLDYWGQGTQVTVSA
notes: to be rechecked; also called 抗PD-L1与OX40双特异性抗体
B3: L52-D7H232 (bispecific antibody, human IgG1, kappa, N297A)
light: B1 light
heavy: DVQLVESGGGLVQPGGSLRLSCAASGFTASIYGMRWFRQAPGKGRELVAGIVDAGSATYYADSVKGRFTISRDNAKNTVYLQMNSLRAEDTAVYYCARGNHEGEVGLDYWGQGTQVTVSASEFGGGGSGGGGSGGGGSLEQVQLVESGGGLVQPGGSLRLSCTVSGIDLSSYDMTWVRQAPGKGLEYIGYISYVSRTYYADSVKGRFTISKDTSKNTVYLQMNSLRAEDTAVYYCARDRPDGAATNLWGQGTLVTVSSASTKGPSVFPLAPSSKSTSGGTAALGCLVKDYFPEPVTVSWNSGALTSGVHTFPAVLQSSGLYSLSSVVTVPSSSLGTQTYICNVNHKPSNTKVDKKVEPKSCDKTHTCPPCPAPEDEGGPSVFLFPPKPKDTLMISRTPEVTCVVVDVSHEDPEVKFNWYVDGVEVHNAKTKPREEQYASTYRVVSVLTVLHQDWLNGKEYKCKVSNKALPAPIEKTISKAKGQPREPQVYTLPPCRDELTKNQVSLWCLVKGFYPSDIAVEWESNGQPENNYKTTPPVLDSDGSFFLYSKLTVDKSRWQQGNVFSCSVMHEALHNHYTQKSLSLSP
notes: Symmetric bispecific: anti-OX40 nanobody D7 joined to the heavy chain of the anti-PD-L1 IgG1 L52H232; also called 抗PD-L1与OX40双特异性抗体; 优选抗体L52-D7H232
B4: L52H232-D7 (bispecific antibody, human IgG1, kappa, N297A)
light: B1 light
heavy: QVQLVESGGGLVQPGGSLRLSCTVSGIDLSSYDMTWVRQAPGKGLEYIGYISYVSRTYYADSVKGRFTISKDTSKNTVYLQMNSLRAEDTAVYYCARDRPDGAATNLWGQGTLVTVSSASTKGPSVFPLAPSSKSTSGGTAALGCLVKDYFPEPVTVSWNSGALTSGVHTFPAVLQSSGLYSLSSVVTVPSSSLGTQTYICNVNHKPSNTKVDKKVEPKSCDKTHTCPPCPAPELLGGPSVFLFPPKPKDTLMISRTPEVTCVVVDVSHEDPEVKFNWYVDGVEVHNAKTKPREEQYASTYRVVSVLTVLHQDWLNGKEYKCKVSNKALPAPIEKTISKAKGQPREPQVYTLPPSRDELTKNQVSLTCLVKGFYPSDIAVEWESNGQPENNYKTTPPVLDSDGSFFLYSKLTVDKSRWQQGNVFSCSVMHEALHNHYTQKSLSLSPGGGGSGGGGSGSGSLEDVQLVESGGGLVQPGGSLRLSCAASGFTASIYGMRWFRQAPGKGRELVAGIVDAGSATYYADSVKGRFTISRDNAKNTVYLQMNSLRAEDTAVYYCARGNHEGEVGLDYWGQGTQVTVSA
notes: Symmetric bispecific: anti-OX40 nanobody D7 joined to the heavy chain of the anti-PD-L1 IgG1 L52H232; also called 抗PD-L1与OX40双特异性抗体

molecular target: T1, 鼠源OX40; assay: ELISA, mouse OX40 coated

binding result	Binder
no binding	B1
no binding	B2
no binding	B3
no binding	B4

molecular target: T2, rhOX40-Avi-His; assay: ELISA, human OX40 coated

binding result	Binder
binds	B1
binds	B2
binds	B4
